Test system: Escherichia coli TOP10
Experiment: shrunken log2 fold change of peptide-encoding DNA abundance (4.5 h post-induction vs induction); higher = less antimicrobial activity (less host growth inhibition)
Conditions: time post-induction: 4.5 h; library: site-saturation at positions 5, 18, 19, 20
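Note: peptides expressed intracellularly from a pBAD plasmid library in pooled LB shake-flask culture, induced with 0.3% L-arabinose, DNA abundance read by NGS, three biological replicates, DESeq2 with apeglm shrinkage.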

| Sequence | shrunken log2 fold change |
| --- | --- |
| RRIRYRPPRLPRPRPRPCVSPRP | -0.0134 |
| RRIRYRPPRLPRPRPRPCWIPRP | -0.01 |
| RRIRYRPPRLPRPRPRPCYTPRP | -0.5 |
| RRIRYRPPRLPRPRPRPDATPRP | 0.104 |
| RRIRYRPPRLPRPRPRPDAWPRP | 0.0522 |
| RRIRYRPPRLPRPRPRPDCRPRP | -0.363 |
| RRIRYRPPRLPRPRPRPDCYPRP | -3.15 |
| RRIRYRPPRLPRPRPRPDENPRP | -0.0185 |
| RRIRYRPPRLPRPRPRPDEQPRP | -0.00172 |
| RRIRYRPPRLPRPRPRPDFFPRP | 0.373 |
| RRIRYRPPRLPRPRPRPDHHPRP | -0.0423 |
| RRIRYRPPRLPRPRPRPDINPRP | -0.162 |
| RRIRYRPPRLPRPRPRPDKEPRP | -0.478 |
| RRIRYRPPRLPRPRPRPDKHPRP | -0.692 |
| RRIRYRPPRLPRPRPRPDNHPRP | -0.135 |
| RRIRYRPPRLPRPRPRPDRKPRP | -0.157 |
| RRIRYRPPRLPRPRPRPDVGPRP | -0.273 |
| RRIRYRPPRLPRPRPRPDVPPRP | -0.0784 |
| RRIRYRPPRLPRPRPRPDVQPRP | -0.0317 |
| RRIRYRPPRLPRPRPRPDWYPRP | -0.968 |
| RRIRYRPPRLPRPRPRPEAEPRP | 0.137 |
| RRIRYRPPRLPRPRPRPEANPRP | -0.127 |
| RRIRYRPPRLPRPRPRPECPPRP | -0.00973 |
| RRIRYRPPRLPRPRPRPEDVPRP | -0.00968 |
| RRIRYRPPRLPRPRPRPEFSPRP | -0.307 |

| Sequence | shrunken log2 fold change |
| --- | --- |
| RRIRYRPPRLPRPRPRPEGWPRP | 0.489 |
| RRIRYRPPRLPRPRPRPEHPPRP | -0.143 |
| RRIRYRPPRLPRPRPRPEHSPRP | -0.425 |
| RRIRYRPPRLPRPRPRPEHTPRP | -0.303 |
| RRIRYRPPRLPRPRPRPEILPRP | -0.288 |
| RRIRYRPPRLPRPRPRPEINPRP | 0.0373 |
| RRIRYRPPRLPRPRPRPEKIPRP | 0.0147 |
| RRIRYRPPRLPRPRPRPELSPRP | 0.0544 |
| RRIRYRPPRLPRPRPRPEMMPRP | -0.0745 |
| RRIRYRPPRLPRPRPRPEMSPRP | -0.343 |
| RRIRYRPPRLPRPRPRPENDPRP | -0.342 |
| RRIRYRPPRLPRPRPRPENKPRP | -0.725 |
| RRIRYRPPRLPRPRPRPENSPRP | -0.0207 |
| RRIRYRPPRLPRPRPRPENVPRP | -0.00208 |
| RRIRYRPPRLPRPRPRPEQSPRP | 0.0157 |
| RRIRYRPPRLPRPRPRPESMPRP | -0.267 |
| RRIRYRPPRLPRPRPRPETLPRP | -0.0879 |
| RRIRYRPPRLPRPRPRPEVYPRP | -0.0597 |
| RRIRYRPPRLPRPRPRPEWFPRP | -0.0405 |
| RRIRYRPPRLPRPRPRPEWHPRP | -0.186 |
| RRIRYRPPRLPRPRPRPEYAPRP | -0.0128 |
| RRIRYRPPRLPRPRPRPEYDPRP | -0.104 |
| RRIRYRPPRLPRPRPRPFAWPRP | -0.0365 |
| RRIRYRPPRLPRPRPRPFDLPRP | -0.967 |
| RRIRYRPPRLPRPRPRPFDNPRP | 0.0112 |

| Sequence | shrunken log2 fold change |
| --- | --- |
| RRIRYRPPRLPRPRPRPFESPRP | -0.0101 |
| RRIRYRPPRLPRPRPRPFGIPRP | -0.149 |
| RRIRYRPPRLPRPRPRPFGPPRP | -0.0934 |
| RRIRYRPPRLPRPRPRPFGRPRP | -0.0018 |
| RRIRYRPPRLPRPRPRPFHHPRP | -1.19 |
| RRIRYRPPRLPRPRPRPFHIPRP | -0.24 |
| RRIRYRPPRLPRPRPRPFIHPRP | -1.54 |
| RRIRYRPPRLPRPRPRPFITPRP | -0.709 |
| RRIRYRPPRLPRPRPRPFLPPRP | -0.557 |
| RRIRYRPPRLPRPRPRPFNRPRP | -0.0175 |
| RRIRYRPPRLPRPRPRPFNWPRP | -0.238 |
| RRIRYRPPRLPRPRPRPFPDPRP | -0.164 |
| RRIRYRPPRLPRPRPRPFPRPRP | -0.0964 |
| RRIRYRPPRLPRPRPRPFPYPRP | -0.0356 |
| RRIRYRPPRLPRPRPRPFQAPRP | -0.464 |
| RRIRYRPPRLPRPRPRPFQCPRP | -0.157 |
| RRIRYRPPRLPRPRPRPFRHPRP | -0.16 |
| RRIRYRPPRLPRPRPRPFRWPRP | -0.14 |
| RRIRYRPPRLPRPRPRPFSCPRP | -0.0516 |
| RRIRYRPPRLPRPRPRPFSQPRP | 0.0654 |
| RRIRYRPPRLPRPRPRPFTVPRP | -0.177 |
| RRIRYRPPRLPRPRPRPFVFPRP | -0.95 |
| RRIRYRPPRLPRPRPRPFYAPRP | -0.642 |
| RRIRYRPPRLPRPRPRPGAQPRP | -0.0279 |
| RRIRYRPPRLPRPRPRPGARPRP | -0.00825 |

| Sequence | shrunken log2 fold change |
| --- | --- |
| RRIRYRPPRLPRPRPRPGCDPRP | -0.282 |
| RRIRYRPPRLPRPRPRPGDEPRP | -0.0823 |
| RRIRYRPPRLPRPRPRPGDTPRP | -0.276 |
| RRIRYRPPRLPRPRPRPGDYPRP | 0.065 |
| RRIRYRPPRLPRPRPRPGFAPRP | -0.00507 |
| RRIRYRPPRLPRPRPRPGFTPRP | -0.149 |
| RRIRYRPPRLPRPRPRPGGPPRP | 0.106 |
| RRIRYRPPRLPRPRPRPGGWPRP | 0.645 |
| RRIRYRPPRLPRPRPRPGHGPRP | -0.111 |
| RRIRYRPPRLPRPRPRPGKEPRP | 0.0011 |
| RRIRYRPPRLPRPRPRPGKVPRP | -0.204 |
| RRIRYRPPRLPRPRPRPGLCPRP | -0.0365 |
| RRIRYRPPRLPRPRPRPGLFPRP | -0.0365 |
| RRIRYRPPRLPRPRPRPGMNPRP | -0.227 |
| RRIRYRPPRLPRPRPRPGMPPRP | -0.403 |
| RRIRYRPPRLPRPRPRPGMVPRP | 2 |
| RRIRYRPPRLPRPRPRPGPAPRP | 0.0198 |
| RRIRYRPPRLPRPRPRPGPVPRP | -0.16 |
| RRIRYRPPRLPRPRPRPGQCPRP | 0.00338 |
| RRIRYRPPRLPRPRPRPGQHPRP | -0.179 |
| RRIRYRPPRLPRPRPRPGRCPRP | -0.102 |
| RRIRYRPPRLPRPRPRPGRNPRP | 0.191 |
| RRIRYRPPRLPRPRPRPGRYPRP | -0.912 |
| RRIRYRPPRLPRPRPRPGSHPRP | -1.48 |
| RRIRYRPPRLPRPRPRPGTDPRP | -0.0254 |

| Sequence | shrunken log2 fold change |
| --- | --- |
| RRIRYRPPRLPRPRPRPGTGPRP | 0.147 |
| RRIRYRPPRLPRPRPRPGVHPRP | -0.452 |
| RRIRYRPPRLPRPRPRPGVMPRP | -0.55 |
| RRIRYRPPRLPRPRPRPGVYPRP | -0.0135 |
| RRIRYRPPRLPRPRPRPGWSPRP | -0.135 |
| RRIRYRPPRLPRPRPRPGWWPRP | 0.316 |
| RRIRYRPPRLPRPRPRPGYFPRP | -0.624 |
| RRIRYRPPRLPRPRPRPGYMPRP | -0.716 |
| RRIRYRPPRLPRPRPRPHAIPRP | -0.268 |
| RRIRYRPPRLPRPRPRPHCHPRP | -0.735 |
| RRIRYRPPRLPRPRPRPHEDPRP | -0.172 |
| RRIRYRPPRLPRPRPRPHEEPRP | -0.018 |
| RRIRYRPPRLPRPRPRPHEGPRP | -0.199 |
| RRIRYRPPRLPRPRPRPHENPRP | -0.212 |
| RRIRYRPPRLPRPRPRPHEQPRP | -0.0662 |
| RRIRYRPPRLPRPRPRPHFIPRP | -0.214 |
| RRIRYRPPRLPRPRPRPHFWPRP | -0.257 |
| RRIRYRPPRLPRPRPRPHKMPRP | -0.153 |
| RRIRYRPPRLPRPRPRPHLAPRP | 0.13 |
| RRIRYRPPRLPRPRPRPHLMPRP | -0.126 |
| RRIRYRPPRLPRPRPRPHLNPRP | -1.15 |
| RRIRYRPPRLPRPRPRPHNGPRP | -0.0705 |
| RRIRYRPPRLPRPRPRPHNSPRP | -0.753 |
| RRIRYRPPRLPRPRPRPHPHPRP | -0.744 |
| RRIRYRPPRLPRPRPRPHPNPRP | -0.758 |

| Sequence | shrunken log2 fold change |
| --- | --- |
| RRIRYRPPRLPRPRPRPHPSPRP | 0.0761 |
| RRIRYRPPRLPRPRPRPHQEPRP | -0.0108 |
| RRIRYRPPRLPRPRPRPHQIPRP | -0.201 |
| RRIRYRPPRLPRPRPRPHQVPRP | -0.208 |
| RRIRYRPPRLPRPRPRPHQYPRP | -0.402 |
| RRIRYRPPRLPRPRPRPHRIPRP | -0.474 |
| RRIRYRPPRLPRPRPRPHRSPRP | -0.017 |
| RRIRYRPPRLPRPRPRPHSQPRP | -0.71 |
| RRIRYRPPRLPRPRPRPHTCPRP | -0.191 |
| RRIRYRPPRLPRPRPRPHTQPRP | -1.1 |
| RRIRYRPPRLPRPRPRPHVQPRP | -0.0701 |
| RRIRYRPPRLPRPRPRPHYWPRP | -0.582 |
| RRIRYRPPRLPRPRPRPIAAPRP | -0.158 |
| RRIRYRPPRLPRPRPRPIAEPRP | 2.73 |
| RRIRYRPPRLPRPRPRPICAPRP | -0.211 |
| RRIRYRPPRLPRPRPRPICDPRP | -0.269 |
| RRIRYRPPRLPRPRPRPIENPRP | -0.0122 |
| RRIRYRPPRLPRPRPRPIFTPRP | -0.212 |
| RRIRYRPPRLPRPRPRPIGMPRP | -0.265 |
| RRIRYRPPRLPRPRPRPIGQPRP | 0.013 |
| RRIRYRPPRLPRPRPRPIGTPRP | -0.1 |
| RRIRYRPPRLPRPRPRPIHEPRP | 0.00548 |
| RRIRYRPPRLPRPRPRPIIKPRP | -1.25 |
| RRIRYRPPRLPRPRPRPIISPRP | -0.18 |
| RRIRYRPPRLPRPRPRPIKCPRP | -0.00104 |

From the supplement of paper PMC9112550, “Optimization of the antimicrobial peptide Bac7 by deep mutational scanning” (BMC Biology, 2022)
